# According to article PMC11343458, “Extracellular proteolysis of tandemly duplicated pheromone propeptides affords additional complexity to bacterial quorum sensing” (PLOS Biology, 2024):
# T1: Rap^105 labelled through its His tag (MST) (Bacillus phage phi105)
# T1 chain: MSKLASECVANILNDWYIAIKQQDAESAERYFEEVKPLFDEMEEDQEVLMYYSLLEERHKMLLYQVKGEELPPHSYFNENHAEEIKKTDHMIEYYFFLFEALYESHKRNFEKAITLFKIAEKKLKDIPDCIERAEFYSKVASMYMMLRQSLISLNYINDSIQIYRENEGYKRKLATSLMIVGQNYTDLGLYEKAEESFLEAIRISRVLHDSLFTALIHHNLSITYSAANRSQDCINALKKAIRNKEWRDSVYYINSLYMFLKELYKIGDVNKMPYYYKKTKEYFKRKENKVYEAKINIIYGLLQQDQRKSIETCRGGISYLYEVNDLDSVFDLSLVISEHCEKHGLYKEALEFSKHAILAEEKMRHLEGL
# Columns and labels:
# Rap^BA3 = Rap^BA3 overexpression; cited from earlier work
# [1] = biological target: Rap^3T (Bacillus phage phi3T); assay: SEC-MALS; Rap^3T at 1 mg/ml, 50 mM Hepes (pH 7), 150 mM NaCl; apo, or preincubated with 100 μm pheromone (SRGHTS or RRGHTA) with 10 μm pheromone in the mobile phase
# [2] = biological target: T1, Rap^105 labelled through its His tag …; assay: MST
# [3] = biological target: Rap^105 (Bacillus phage phi105); assay: thermal shift assay; Sypro Orange, 50 μm protein, 100 μm synthetic peptide, 20 mM Tris (pH 8), 250 mM NaCl (or filtered supernatant in the maturation assays), heated from 20 to 85°C
# [4] = biological target: Rap^105 labelled through its His tag (MST) (Bacillus phage phi105); assay: MST; Rap^105 labelled with RED-tris-NTA on the His tag at 250 nM; peptide in a 16-point 2-fold dilution from 2 to 3 x 10^-5 μm; PBS with 0,02% tween; 15 min at room temperature; Hill model
molecule,measurement,setting,value
RRGQT [peptide that relieves Rap^BA3 repression in previous work],relief of Rap^BA3 repression of sporulation and competence,Rap^BA3,repression is relieved
Rap^3T (receptor),stoichiometry N,[1],2
ERPVGT,EC50,[2],38.2 nM
same,stabilization of the denaturation temperature,[3],9 degrees
same,EC50,[4],34 nM
